B1: 14-3-3 protein sigma (Homo sapiens), P31947 (parent)
chain: MERASLIQKAKLAEQAERYEDMAAFMKGAVEKGEELSCEERNLLSVAYKNVVGGQRAAWRVLSSIEQKSNEEGSEEKGPEVREYREKVETELQGVCDTVLGLLDSHLIKEAGDAESRVFYLKMKGDYYRYLAEVATGDDKKRIIDSARSAYQEAMDISKKEMPPTNPIRLGLALNFSVFHYEIANSPEEAISLAKTTFDEAMADLHTLSEDSYKDSTLIMQLLRDNLTLWTADNAGEEGGEAPQEPQS
partner: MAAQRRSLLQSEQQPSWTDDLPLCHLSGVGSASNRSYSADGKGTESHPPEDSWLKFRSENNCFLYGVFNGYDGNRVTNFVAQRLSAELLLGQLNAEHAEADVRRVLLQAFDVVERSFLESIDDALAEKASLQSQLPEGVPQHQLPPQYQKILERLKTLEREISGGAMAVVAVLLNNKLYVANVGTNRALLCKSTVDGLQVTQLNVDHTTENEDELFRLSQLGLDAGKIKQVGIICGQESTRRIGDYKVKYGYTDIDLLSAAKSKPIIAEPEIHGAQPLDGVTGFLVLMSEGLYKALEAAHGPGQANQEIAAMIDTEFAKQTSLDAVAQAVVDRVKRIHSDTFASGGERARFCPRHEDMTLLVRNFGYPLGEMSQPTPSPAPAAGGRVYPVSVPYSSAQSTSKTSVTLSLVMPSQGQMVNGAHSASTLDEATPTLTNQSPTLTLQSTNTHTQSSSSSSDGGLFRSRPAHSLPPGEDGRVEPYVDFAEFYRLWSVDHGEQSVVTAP
B2: Kinesin-like protein KIF1C (Homo sapiens), O43896 (parent)
chain: MAGASVKVAVRVRPFNARETSQDAKCVVSMQGNTTSIINPKQSKDAPKSFTFDYSYWSHTSTEDPQFASQQQVYRDIGEEMLLHAFEGYNVCIFAYGQTGAGKSYTMMGRQEPGQQGIVPQLCEDLFSRVSENQSAQLSYSVEVSYMEIYCERVRDLLNPKSRGSLRVREHPILGPYVQDLSKLAVTSYADIADLMDCGNKARTVAATNMNETSSRSHAVFTIVFTQRCHDQLTGLDSEKVSKISLVDLAGSERADSSGARGMRLKEGANINKSLTTLGKVISALADMQSKKRKSDFIPYRDSVLTWLLKENLGGNSRTAMIAALSPADINYEETLSTLRYADRTKQIRCNAIINEDPNARLIRELQEEVARLRELLMAQGLSASALEGLKTEEGSVRGALPAVSSPPAPVSPSSPTTHNGELEPSFSPNTESQIGPEEAMERLQETEKIIAELNETWEEKLRKTEALRMEREALLAEMGVAVREDGGTVGVFSPKKTPHLVNLNEDPLMSECLLYHIKDGVTRVGQVDMDIKLTGQFIREQHCLFRSIPQPDGEVVVTLEPCEGAETYVNGKLVTEPLVLKSGNRIVMGKNHVFRFNHPEQARLERERGVPPPPGPPSEPVDWNFAQKELLEQQGIDIKLEMEKRLQDLENQYRKEKEEADLLLEQQRLYADSDSGDDSDKRSCEESWRLISSLREQLPPTTVQTIVKRCGLPSSGKRRAPRRVYQIPQRRRLQGKDPRWATMADLKMQAVKEICYEVALADFRHGRAEIEALAALKMRELCRTYGKPDGPGDAWRAVARDVWDTVGEEEGGGAGSGGGSEEGARGAEVEDLRAHIDKLTGILQEVKLQNSSKDRELQALRDRMLRMERVIPLAQDHEDENEEGGEVPWAPPEGSEAAEEAAPSDRMPSARPPSPPLSSWERVSRLMEEDPAFRRGRLRWLKQEQLRLQGLQGSGGRGGGLRRPPARFVPPHDCKLRFPFKSNPQHRESWPGMGSGEAPTPLQPPEEVTPHPATPARRPPSPRRSHHPRRNSLDGGGRSRGAGSAQPEPQHFQPKKHNSYPQPPQPYPAQRPPGPRYPPYTTPPRMRRQRSAPDLKESGAAV
partner: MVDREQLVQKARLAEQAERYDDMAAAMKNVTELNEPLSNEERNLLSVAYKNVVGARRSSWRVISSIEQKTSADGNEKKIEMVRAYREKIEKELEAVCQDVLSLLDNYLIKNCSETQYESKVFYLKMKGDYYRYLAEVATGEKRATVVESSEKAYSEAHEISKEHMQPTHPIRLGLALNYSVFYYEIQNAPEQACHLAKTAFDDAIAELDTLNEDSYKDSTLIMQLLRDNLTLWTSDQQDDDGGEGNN
B3: 14-3-3 protein sigma (Homo sapiens), P31947 (parent)
chain: B1 chain
partner: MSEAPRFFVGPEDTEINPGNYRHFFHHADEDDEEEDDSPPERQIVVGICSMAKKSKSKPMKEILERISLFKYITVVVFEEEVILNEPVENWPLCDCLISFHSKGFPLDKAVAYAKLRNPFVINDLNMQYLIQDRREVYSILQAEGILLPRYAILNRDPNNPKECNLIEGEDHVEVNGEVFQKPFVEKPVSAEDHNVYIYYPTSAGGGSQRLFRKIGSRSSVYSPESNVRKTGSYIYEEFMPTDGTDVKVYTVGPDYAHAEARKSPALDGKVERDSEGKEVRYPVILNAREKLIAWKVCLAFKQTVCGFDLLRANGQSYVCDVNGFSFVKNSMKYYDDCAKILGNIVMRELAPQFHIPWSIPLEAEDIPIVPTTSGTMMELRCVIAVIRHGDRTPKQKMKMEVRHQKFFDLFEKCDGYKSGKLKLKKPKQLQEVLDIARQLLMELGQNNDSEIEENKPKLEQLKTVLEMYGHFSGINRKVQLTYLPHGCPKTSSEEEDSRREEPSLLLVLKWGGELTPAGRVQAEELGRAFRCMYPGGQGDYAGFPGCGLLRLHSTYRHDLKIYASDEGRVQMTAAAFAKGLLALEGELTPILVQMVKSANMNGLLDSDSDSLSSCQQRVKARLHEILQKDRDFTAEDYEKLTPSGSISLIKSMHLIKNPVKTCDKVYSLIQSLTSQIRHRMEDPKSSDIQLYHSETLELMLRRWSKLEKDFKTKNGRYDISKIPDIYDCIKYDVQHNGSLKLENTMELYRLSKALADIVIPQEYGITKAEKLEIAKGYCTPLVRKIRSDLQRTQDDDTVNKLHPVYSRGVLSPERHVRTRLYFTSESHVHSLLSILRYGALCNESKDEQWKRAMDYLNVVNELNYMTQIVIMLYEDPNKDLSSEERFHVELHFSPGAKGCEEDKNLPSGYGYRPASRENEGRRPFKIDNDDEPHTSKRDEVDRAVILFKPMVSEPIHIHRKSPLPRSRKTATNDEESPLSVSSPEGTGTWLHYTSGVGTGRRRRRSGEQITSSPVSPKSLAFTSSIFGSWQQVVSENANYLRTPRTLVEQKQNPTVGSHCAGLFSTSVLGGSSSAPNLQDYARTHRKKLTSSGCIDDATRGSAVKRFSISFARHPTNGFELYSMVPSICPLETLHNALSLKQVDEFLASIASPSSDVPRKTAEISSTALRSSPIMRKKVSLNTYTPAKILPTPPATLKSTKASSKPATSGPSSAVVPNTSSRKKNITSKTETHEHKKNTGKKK
B4: 14-3-3 protein sigma (Homo sapiens), P31947 (parent)
chain: B1 chain
partner: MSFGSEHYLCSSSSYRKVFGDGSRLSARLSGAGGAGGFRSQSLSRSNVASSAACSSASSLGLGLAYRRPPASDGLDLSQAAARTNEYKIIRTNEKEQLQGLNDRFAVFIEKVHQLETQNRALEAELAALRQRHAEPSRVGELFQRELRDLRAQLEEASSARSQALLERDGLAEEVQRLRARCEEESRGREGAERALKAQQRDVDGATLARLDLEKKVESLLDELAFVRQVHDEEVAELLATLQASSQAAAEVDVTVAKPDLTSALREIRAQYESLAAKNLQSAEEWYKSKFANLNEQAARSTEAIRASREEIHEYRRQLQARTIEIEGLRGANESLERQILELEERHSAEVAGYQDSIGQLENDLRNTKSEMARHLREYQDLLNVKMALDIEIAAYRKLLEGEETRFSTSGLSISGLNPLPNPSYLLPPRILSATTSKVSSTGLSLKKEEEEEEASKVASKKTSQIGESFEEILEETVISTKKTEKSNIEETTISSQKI
B5: Protein Smaug homolog 1 (Homo sapiens), Q9UPU9 (parent)
chain: MMFRDQVGVLAGWFKGWNECEQTVALLSLLKRVSQTQARFLQLCLEHSLADCAELHVLEREANSPGIINQWQQESKDKVISLLLTHLPLLKPGNLDAKVEYMKLLPKILAHSIEHNQHIEESRQLLSYALIHPATSLEDRSALAMWLNHLEDRTSTSFGGQNRGRSDSVDYGQTHYYHQRQNSDDKLNGWQNSRDSGICINASNWQDKSMGCENGHVPLYSSSSVPTTINTIGTSTSTILSGQAHHSPLKRSVSLTPPMNVPNQPLGHGWMSHEDLRARGPQCLPSDHAPLSPQSSVASSGSGGSEHLEDQTTARNTFQEEGSGMKDVPAWLKSLRLHKYAALFSQMTYEEMMALTECQLEAQNVTKGARHKIVISIQKLKERQNLLKSLERDIIEGGSLRIPLQELHQMILTPIKAYSSPSTTPEARRREPQAPRQPSLMGPESQSPDCKDGAAATGATATPSAGASGGLQPHQLSSCDGELAVAPLPEGDLPGQFTRVMGKVCTQLLVSRPDEENISSYLQLIDKCLIHEAFTETQKKRLLSWKQQVQKLFRSFPRKTLLDISGYRQQRNRGFGQSNSLPTAGSVGGGMGRRNPRQYQIPSRNVPSARLGLLGTSGFVSSNQRNTTATPTIMKQGRQNLWFANPGGSNSMPSRTHSSVQRTRSLPVHTSPQNMLMFQQPEFQLPVTEPDINNRLESLCLSMTEHALGDGVDRTSTI
partner: B2 partner

Variants of: B1
Conditions: with tab1_human TAB1, Q15750

| effect of a mutation on the interaction | Variant |
| --- | --- |
| decreasing interaction strength | K49E;R56E;V178D |

Variants of: B2
Conditions: with 1433g_human YWHAG

| effect of a mutation on the interaction | Variant |
| --- | --- |
| disrupting interaction strength | S915A;S1033A;S1092A |

Variants of: B3
Conditions: with vip2_human PPIP5K2, O43314

| effect of a mutation on the interaction | Variant |
| --- | --- |
| decreasing interaction strength | K49E;R56E;V178D |

Variants of: B4
Conditions: with ainx_human INA

| effect of a mutation on the interaction | Variant |
| --- | --- |
| decreasing interaction strength | K49E;R56E;V178D |

Variants of: B5
Conditions: with 1433g_human YWHAG

| effect of a mutation on the interaction | Variant |
| --- | --- |
| decreasing interaction strength | S168A;S183A;S254A;S580A;S665A;T717A |

— IntAct's records for PubMed 36931259
